The target of this experiment is T1, GroEL chaperonin ( (purified from Escherichia …, UniProt P0A6F5 1-548)).
T1 construct: GroEL chaperonin, purified from Escherichia coli cells (HB101 strain) after expression of the plasmid pGroE4
Put plainly: fluorescence polarisation; 30×10^-9 M denatured fluorescein-labeled protein titrated with GroEL in 20 mM Tris–HCl, pH 7.5, 20 mM DTT, 10 mM MgCl2, 300 mM NaCl; apparent constant, counted on GroEL cavities. Conditions: both partners purified.

T1 sequence (P0A6F5 whole entry): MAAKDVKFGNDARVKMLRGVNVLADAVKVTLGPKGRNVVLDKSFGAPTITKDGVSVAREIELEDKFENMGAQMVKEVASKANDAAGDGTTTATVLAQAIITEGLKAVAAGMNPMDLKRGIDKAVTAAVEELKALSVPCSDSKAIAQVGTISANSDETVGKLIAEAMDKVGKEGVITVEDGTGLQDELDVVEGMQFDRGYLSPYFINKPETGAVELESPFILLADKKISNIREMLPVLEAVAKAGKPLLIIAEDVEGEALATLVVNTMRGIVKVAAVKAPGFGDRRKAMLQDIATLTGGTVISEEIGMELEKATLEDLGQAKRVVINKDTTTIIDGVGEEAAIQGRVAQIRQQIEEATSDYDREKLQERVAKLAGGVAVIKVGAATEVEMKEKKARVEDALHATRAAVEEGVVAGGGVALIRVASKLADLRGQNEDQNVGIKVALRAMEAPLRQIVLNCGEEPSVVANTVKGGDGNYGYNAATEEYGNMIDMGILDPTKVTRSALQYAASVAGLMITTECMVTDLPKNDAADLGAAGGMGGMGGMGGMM

B1: fluorescein-labeled human α-lactalbumin (natural protein, UniProt P00709 20-142, looked up)
chain: KQFTKCELSQLLKDIDGYGGIALPELICTMFHTSGYDTQAIVENNESTEYGLFQISNKLWCKSSQVPQSRNICDISCDKFLDDDITDDIMCAKKILDIKGIDYWLAHKALCTEKLEQWLCEKL
modifications: fluorescein label (fluorescein isothiocyanate), position not stated
notes: Human α-lactalbumin; The same labelled protein was used native (20 mM Tris-HCl, pH 7.5) and denatured (buffer with 20 mM DTT); the assays tell the two states apart; also called native α-lactalbumin; denatured α-lactalbumin; source: bought: Sigma (USA), used without additional purification; labelled with fluorescein isothiocyanate, PD-10 and MonoQ
For B1, the Kd was found to be 1.6 nM.

The record behind these values is publication PMC4735476, “Dataset concerning GroEL chaperonin interaction with proteins” (Data in Brief, 2016).
